Assay in all cases: saturation binding, trap coated on plate, SEMA3A-FC titrated, anti-human IgG-HRP chemiluminescence
Assay [1] deals with T1, NRP1 trap AC (human, UniProt O14786 22-856).
T1 construct: a1a2-b1b2-c with D320K (held in the entry); Signal peptide not trimmed
T1 sequence: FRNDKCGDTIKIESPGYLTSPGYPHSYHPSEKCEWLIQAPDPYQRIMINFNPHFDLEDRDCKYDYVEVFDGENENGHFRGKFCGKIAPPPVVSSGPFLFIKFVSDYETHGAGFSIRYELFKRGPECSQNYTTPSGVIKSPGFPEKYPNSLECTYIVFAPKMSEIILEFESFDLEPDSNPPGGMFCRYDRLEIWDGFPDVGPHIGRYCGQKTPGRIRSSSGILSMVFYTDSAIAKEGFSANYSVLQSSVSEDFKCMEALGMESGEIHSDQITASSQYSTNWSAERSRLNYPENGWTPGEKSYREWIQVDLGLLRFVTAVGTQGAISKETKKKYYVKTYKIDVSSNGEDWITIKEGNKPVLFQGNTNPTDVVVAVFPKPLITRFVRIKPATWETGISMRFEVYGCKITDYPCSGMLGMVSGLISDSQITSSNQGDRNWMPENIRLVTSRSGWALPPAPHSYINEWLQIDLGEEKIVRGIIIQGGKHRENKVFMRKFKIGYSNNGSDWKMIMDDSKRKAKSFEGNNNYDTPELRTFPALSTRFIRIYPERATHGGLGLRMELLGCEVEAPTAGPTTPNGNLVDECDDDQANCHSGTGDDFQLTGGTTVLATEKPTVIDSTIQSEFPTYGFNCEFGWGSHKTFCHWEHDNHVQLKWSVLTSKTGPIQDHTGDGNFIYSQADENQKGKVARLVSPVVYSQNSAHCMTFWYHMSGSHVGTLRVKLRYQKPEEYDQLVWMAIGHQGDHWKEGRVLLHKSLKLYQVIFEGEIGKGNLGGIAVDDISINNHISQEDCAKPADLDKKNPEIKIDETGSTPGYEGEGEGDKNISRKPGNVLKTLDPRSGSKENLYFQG
As for the experimental part: (§1) Sema 3A and AP-VEGF₁₆₅ binding assays. Saturation curves for the determinations of KD of binding to SEMA 3A or VEGF165 were obtained as follow. Wells of high protein binding 96 well plates (Maxisorp, Nunc) were coated with purified traps diluted in PBS and blocked afterward with binding buffer (PBS containing 2% casein and 0.05% Tween 20). The SEMA3A-FC (R&D systems) or AP-VEGF165 ligands were diluted in binding buffer over an extensive range of concentrations and added to wells. Following an overnight incubation, wells were washed with PBS containing 0.05% tween. Bound SEMA3a-FC was detected using an HRP-linked anti-Human IgG (Biorad) and ECL substrate (Pierce). Alternatively, bound AP-VEGF165 was detected using CPD star substrate (Roche). The Chemiluminescent signal was acquired on a TECAN reader. Dissociation constant (KD) were determined by non-linear curve fitting using the Graph Pad prism software.

Assay [2] concerns the target T2, NRP1 trap G (human, UniProt O14786 22-856).
T2 construct: a1a2-b1b2-c; The mature trap lacks the signal peptide (about aa 1-21, may vary)
T2 sequence: T1 sequence with K299D
As for the experimental part: as §1

For assay [3], the target named is T3, NRP1 trap R (human, UniProt O14786 22-856).
T3 construct: a1a2-b1b2-c with Y297A (the entry is the trap itself, so no substitution is applied)
T3 sequence: T1 sequence with Y276A, K299D
As for the experimental part: as §1

Numbering of substitutions follows the chain as printed.

B1: SEMA3A-FC (R&D systems) (Fc fusion)
chain: YQNGKNNVPRLKLSYKEMLESNNVITFNGLANSSSYHTFLLDEERSRLYVGAKDHIFSFDLVNIKDFQKIVWPVSYTRRDECKWAGKDILKECANFIKVLKAYNQTHLYACGTGAFHPICTYIEIGHHPEDNIFKLENSHFENGRGKSPYDPKLLTASLLIDGELYSGTAADFMGRDFAIFRTLGHHHPIRTEQHDSRWLNDPKFISAHLISESDNPEDDKVYFFFRENAIDGEHSGKATHARIGQICKNDFGGHRSLVNKWTTFLKARLICSVPGPNGIDTHFDELQDVFLMNFKDPKNPVVYGVFTTSSNIFKGSAVCMYSMSDVRRVFLGPYAHRDGPNYQWVPYQGRVPYPRPGTCPSKTFGGFDSTKDLPDDVITFARSHPAMYNPVFPMNNRPIVIKTDVNYQFTQIVVDRVDAEDGQYDVMFIGTDVGTVLKVVSIPKETWYDLEEVLLEEMTVFREPTAISAMELSTKQQQLYIGSTAGVAQLPLHRCDIYGKACAECCLARDPYCAWDGSACSRYFPTAKRRTRRQDIRNGDPLTHCSDLHHDNHHGHSPEERIIYGVENSSTFLECSPKSQRALVYWQFQRRNEERKEEIRVDDHIIRTDQGLLLRSLQQKDSGNYLCHAVEHGFIQTLLKVTLEVIDTEHLEELLHKDDDGDGSKTKEMSNSMTPSQKVWYRDFMQLINHPNLNTMDEFCEQVWKRDRKQRRQRPGHTPGNSNKWKHLQENKKGRNRRTHEFERAPRSV
notes: Bought reagent; not shown: Fc portion of the bought fusion, detected with anti-human IgG
As to B1, the Kd in assay [1] was found to be 4 nM; in assay [2], 0.8 nM; in assay [3], 6.15 nM.

For orientation: Kd means a measure of binding affinity in units of concentration.

Source of the values: patent US20240301429A1 (RSEM LIMITED PARTNERSHIP, published 2024).
